From publication PMC4475061 (2015)

B1: ULK3 fused to the VP16 activation domain [human] / CHMP1B WT fused to the Gal4 DNA-binding domain [human] (parent complex)
chain 1: MAGPGWGPPRLDGFILTERLGSGTYATVYKAYAKKDTREVVAIKCVAKKSLNKASVENLLTEIEILKGIRHPHIVQLKDFQWDSDNIYLIMEFCAGGDLSRFIHTRRILPEKVARVFMQQLASALQFLHERNISHLDLKPQNILLSSLEKPHLKLADFGFAQHMSPWDEKHVLRGSPLYMAPEMVCQRQYDARVDLWSMGVILYEALFGQPPFASRSFSELEEKIRSNRVIELPLRPLLSRDCRDLLQRLLERDPSRRISFQDFFAHPWVDLEHMPSGESLGRATALVVQAVKKDQEGDSAAALSLYCKALDFFVPALHYEVDAQRKEAIKAKVGQYVSRAEELKAIVSSSNQALLRQGTSARDLLREMARDKPRLLAALEVASAAMAKEEAAGGEQDALDLYQHSLGELLLLLAAEPPGRRRELLHTEVQNLMARAEYLKEQVKMRESRWEADTLDKEGLSESVRSSCTLQ
chain 2: MEKHLFNLKFAAKELSRSAKKCDKEEKAEKAKIKKAIQKGNMEVARIHAENAIRQKNQAVNFLRMSARVDAVAARVQTAVTMGKVTKSMAGVVKSMDATLKTMNLEKISALMDKFEHQFETLDVQTQQMEDTMSSTTTLTTPQNQVDMLLQEMADEAGLDLNMELPQGQTGSVGTSVASAEQDELSQRLARLRDQV
B2: CHMP1B WT fused to the Gal4 DNA-binding domain [human] / ULK3 fused to the VP16 activation domain [human] (parent complex)
chain 1: B1 chain 2
chain 2: B1 chain 1
B3: ULK3 fused to the VP16 activation domain [human] / CHMP1A fused to the Gal4 DNA-binding domain [human] (parent complex)
chain 1: B1 chain 1
chain 2: MDDTLFQLKFTAKQLEKLAKKAEKDSKAEQAKVKKALLQKNVECARVYAENAIRKKNEGVNWLRMASRVDAVASKVQTAVTMKGVTKNMAQVTKALDKALSTMDLQKVSSVMDRFEQQVQNLDVHTSVMEDSMSSATTLTTPQEQVDSLIMQIAEENGLEVLDQLSQLPEGASAVGESSVRSQEDQLSRRLAALRN
B4: CHMP1B WT fused to the Gal4 DNA-binding domain [human] / CHMP1A (positive-control partner of the Gal4-CHMP1B constructs in the two-hybrid assay) [human] (parent complex)
chain 1: B1 chain 2
chain 2: B3 chain 2

Variants of: B1
Assay: yeast two-hybrid (β-galactosidase activity); read off a plot

| response | Variant |
| --- | --- |
| ~0.051 | chain 1 MAGPGWGPPRLDGFILTERLGSGTYATVYKAYAKKDTREVVAIKCVAKKSLNKASVENLLTEIEILKGIRHPHIVQLKDFQWDSDNIYLIMEFCAGGDLSRFIHTRRILPEKVARVFMQQLASALQFLHERNISHLDLKPQNILLSSLEKPHLKLADFGFAQHMSPWDEKHVLRGSPLYMAPEMVCQRQYDARVDLWSMGVILYEALFGQPPFASRSFSELEEKIRSNRVIELPLRPLLSRDCRDLLQRLLERDPSRRISFQDFFAHPWVDLEHMPSGESLGRATALVVQAVKKDQEGDSAAALSLYCKALDFFVPALHYEVDAQRKEAIKAKVGQYVSRAEELKAIVSSSNQALLRQGTSARDLLREMARDKPRLLAALEVASAAMAKEEAAGGEQDALDLYQHSLGELLLLLAAEPPGRRRELLHTEVQNLDARAEYLKEQVKMRESRWEADTLDKEGLSESVRSSCTLQ [chain 1 M434D] |
| ~0.061 | chain 1 MAGPGWGPPRLDGFILTERLGSGTYATVYKAYAKKDTREVVAIKCVAKKSLNKASVENLLTEIEILKGIRHPHIVQLKDFQWDSDNIYLIMEFCAGGDLSRFIHTRRILPEKVARVFMQQLASALQFLHERNISHLDLKPQNILLSSLEKPHLKLADFGFAQHMSPWDEKHVLRGSPLYMAPEMVCQRQYDARVDLWSMGVILYEALFGQPPFASRSFSELEEKIRSNRVIELPLRPLLSRDCRDLLQRLLERDPSRRISFQDFFAHPWVDLEHMPSGESLGRATALVVQAVKKDQEGDSAAALSLYCKALDFFVPALHYEVDAQRKEAIKAKVGQYDSRAEELKAIVSSSNQALLRQGTSARDLLREMARDKPRLLAALEVASAAMAKEEAAGGEQDALDLYQHSLGELLLLLAAEPPGRRRELLHTEVQNLMARAEYLKEQVKMRESRWEADTLDKEGLSESVRSSCTLQ [chain 1 V338D] |

Variants of: B2
Assay: as above

| response | Variant |
| --- | --- |
| ~0.028 | chain 1 MEKHLFNLKFAAKELSRSAKKCDKEEKAEKAKIKKAIQKGNMEVARIHAENAIRQKNQAVNFLRMSARVDAVAARVQTAVTMGKVTKSMAGVVKSMDATLKTMNLEKISALMDKFEHQFETLDVQTQQMEDTMSSTTTLTTPQNQVDMLLQEMADEAGLDLNMELPQGQTGSVGTSVASAEQDELSQRLAAAADQV [chain 1 R191A, chain 1 L192A, chain 1 R193A] |

Variants of: B3
Assay: as above

| response | Variant |
| --- | --- |
| ~0.075 | chain 1 MAGPGWGPPRLDGFILTERLGSGTYATVYKAYAKKDTREVVAIKCVAKKSLNKASVENLLTEIEILKGIRHPHIVQLKDFQWDSDNIYLIMEFCAGGDLSRFIHTRRILPEKVARVFMQQLASALQFLHERNISHLDLKPQNILLSSLEKPHLKLADFGFAQHMSPWDEKHVLRGSPLYMAPEMVCQRQYDARVDLWSMGVILYEALFGQPPFASRSFSELEEKIRSNRVIELPLRPLLSRDCRDLLQRLLERDPSRRISFQDFFAHPWVDLEHMPSGESLGRATALVVQAVKKDQEGDSAAALSLYCKALDFFVPALHYEVDAQRKEAIKAKVGQYDSRAEELKAIVSSSNQALLRQGTSARDLLREMARDKPRLLAALEVASAAMAKEEAAGGEQDALDLYQHSLGELLLLLAAEPPGRRRELLHTEVQNLMARAEYLKEQVKMRESRWEADTLDKEGLSESVRSSCTLQ [chain 1 V338D] |

Variants of: B4
Assay: as above

| response | Variant |
| --- | --- |
| ~0.48 | chain 1 MEKHLFNLKFAAKELSRSAKKCDKEEKAEKAKIKKAIQKGNMEVARIHAENAIRQKNQAVNFLRMSARVDAVAARVQTAVTMGKVTKSMAGVVKSMDATLKTMNLEKISALMDKFEHQFETLDVQTQQMEDTMSSTTTLTTPQNQVDMLLQEMADEAGLDLNMELPQGQTGSVGTSVASAEQDELSQRLARLRAAA [chain 1 D194A, chain 1 Q195A, chain 1 V196A] |
| ~0.54 | chain 1 MEKHLFNLKFAAKELSRSAKKCDKEEKAEKAKIKKAIQKGNMEVARIHAENAIRQKNQAVNFLRMSARVDAVAARVQTAVTMGKVTKSMAGVVKSMDATLKTMNLEKISALMDKFEHQFETLDVQTQQMEDTMSSTTTLTTPQNQVDMLLQEMADEAGLDLNMELPQGQTGSVGTSVASAEQDELSQRLAAAADQV [chain 1 R191A, chain 1 L192A, chain 1 R193A] |
| ~0.62 | chain 1 MEKHLFNLKFAAKELSRSAKKCDKEEKAEKAKIKKAIQKGNMEVARIHAENAIRQKNQAVNFLRMSARVDAVAARVQTAVTMGKVTKSMAGVVKSMDATLKTMNLEKISALMDKFEHQFETLDVQTQQMEDTMSSTTTLTTPQNQVDMLLQEMADEAGLDLNMELPQGQTGSVGTSVASAEQDEAAARLARLRDQV [chain 1 L185A, chain 1 S186A, chain 1 Q187A] |
| ~0.77 | chain 1 MEKHLFNLKFAAKELSRSAKKCDKEEKAEKAKIKKAIQKGNMEVARIHAENAIRQKNQAVNFLRMSARVDAVAARVQTAVTMGKVTKSMAGVVKSMDATLKTMNLEKISALMDKFEHQFETLDVQTQQMEDTMSSTTTLTTPQNQVDMLLQEMADEAGLDLNMELPQGQTGSVGTSVASAEQDELSQAAARLRDQV [chain 1 R188A, chain 1 L189A] |
